# In article PMC8853325:
# Assays:
# [1] = substrate: CC(=O)N[C@H]1[C@@H](OP(=O)(O)OP(=O)(O)OCCCCCCCCCCCOc2ccccc2)O[C@H](CO)[C@@H](O)[C@@H]1O[C@H]1O[C@H](C)[C@@H](O)[C@H](O)[C@@H]1O; test: cells, lysate or membranes; settings: donor GDP-D-[^3H]Rha, 5 mM MnCl2, Tris pH 9, 37 °C
# [2] = substrate: C[C@H]1O[C@H](OCc2ccccc2)[C@@H](O)[C@@H](O)[C@@H]1O; test: cells, lysate or membranes; settings: donor GDP-D-[^3H]Rha, 5 mM MnCl2, Tris pH 9, 37 °C
protein,measurement,setting,value
His6-WbpX (Pseudomonas aeruginosa) (protein) MTRLLVECTYVFEHPKVNSGIQRVVRNVIRELPEADETVECIPVAMLDGTLYQVHSLAPLDPRPHSPLVRLRILVERAANYFWLGQRTLEKRRPFRSSPWARRLLYVACRLFAFAFLSIPLRLLDRILGKQQPAPVRATPLEHRAGDQLVLLDSSWHADFFPLAERLKSEGVGIVSVIYDLIPLTHPQFCDAGLVKVFNHWFDWIAATADGYVAISETIRDEVRAEMLRRIGPEKVAQRWFDYFHLGSELDLVEDGASVEPDLLRMFKAKAPVFLMVSTIEPRKNHGYLLDAFERAWAQGSQARLCIAGRIGWKCEALVERVRQHPELNKRLFMFNDLSDKSLEYAYSHAASLVFPSYVEGFGLPLVEAMQRGLPAMGSDIPVFREIGGEFMAYFDLADPQTLANLVTRFEATGEFPAERPVGEWRWIGWHEASRQLIARILLALGKAPAHGEAVHADCG,Km,[1],220 µM
same,Km,[2],21 µM
